These results are taken from article PMC11363328.

The target of this series is DDX3X (UniProt O00571). Description: fluorescence polarization, protein titration. As to conditions: FP: 14.4 mM HEPES-KOH pH 8, 108 mM NaCl, 1 mM MgCl2, 14.4% glycerol, 0.1% DMSO, 2 mM DTT, 1 mM ATP, 10 nM probe, room temperature, 10 min.
DDX3X, sequence (O00571 132-607): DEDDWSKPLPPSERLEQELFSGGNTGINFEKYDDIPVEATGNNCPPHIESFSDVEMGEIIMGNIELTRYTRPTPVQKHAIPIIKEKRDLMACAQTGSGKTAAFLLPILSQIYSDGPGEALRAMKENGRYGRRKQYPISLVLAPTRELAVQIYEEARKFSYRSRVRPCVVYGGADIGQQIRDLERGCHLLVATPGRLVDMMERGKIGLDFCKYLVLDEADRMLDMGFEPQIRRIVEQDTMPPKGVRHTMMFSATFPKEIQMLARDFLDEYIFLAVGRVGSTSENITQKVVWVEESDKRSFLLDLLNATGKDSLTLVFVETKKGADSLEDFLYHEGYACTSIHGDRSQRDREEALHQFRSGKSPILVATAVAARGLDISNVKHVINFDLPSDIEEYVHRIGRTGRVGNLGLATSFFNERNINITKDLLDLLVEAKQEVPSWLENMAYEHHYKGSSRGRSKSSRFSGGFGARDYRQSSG

In the case of AGAGAGAGAGAGAGAG [FAM-r(AG)8], the K half was 2800 nM.
